The values that follow come from the DeepSol protein solubility set.

A short description of this data set: soluble on expression in E. coli; label from the status in PepcDB or PDB records.
As to “MAQNNENALPDITKSITLEAPIQKVWETVSTSEGIAKWFMPNDFQLKEGQEFHLQSPFGPSPCKVLAVQAPTELSFEWDTEGWVVTFQLEDLGEKTGFTLIHSGWKEPNEVIGKANEKSSVVRGKMDGGWTGIVNERLRKAVEE”, the “soluble on expression in E. coli” value is given as “not soluble”.

Turning to “MQSTIRKQLLQVFSEADGEFVSGQTISDKLGCSRTAVWKHMEDLRNEGYELEAVRRLGYRIASKPDKVTANEIQLGLQTKHIGRTVYFEESVESTQHIAAKLAYEGAEEGTIVVAEEQTAGRGRLSRKWHSPKGTGIWMSIILRPSIPVHHAPQLTLLAAVSVAQAIEKCTGVNVGIKWPNDILIQGKKAVGILTEMQADPDKINAVIMGIGINANQKQEHFDEEIQHIATSLAIESGKPIVRAELMQQIFLQLEKLYEEYLQNGFSVIKILWESYAVSIGKEINARTMRETITGVAKGITEDGVLLLEDHEGKVHHIHSADIEIK”, the “soluble on expression in E. coli” value is “not soluble”.

As to “MSLRNVLQDYLDEHSFRVVVKKKKNYLTYEGLQDRYAYILKSGIIKTSVISKDGREFNLRYINNLEIVSLLRDEYSEFIDAPFNIRIESPQAELYQIDRVQFWRDINNSKDLQMYVKEYYRDRLMHSMKKMQQMLMNGKFGAVCTQIYEMYDSFGVETEEGILIDFVVTNEEIAHFCGITSASSVNRMMQQLKELGAIELRNRKILIKDLDMIRDNEGGSHHHHHH”, the “soluble on expression in E. coli” value is given as “soluble”.

As to “QTMGGDDVKVVQYNQEKLVQTRMSVADNGWIYVMTHSGYDTGNSNVKIFRSKDQGATYQKLRDWDPSDDYQFQDFDIVVTGKNESDIKIWSVELMNKPGGYKSRVAVFSRDANAQNAKLVYKEDFSNVQLYDVDIASNYRSPSSLNNGGNPFALAFAYTGFNNTHKISFVDYVFSLNGGQNFNKNLLFSQDGEKKIDKVDLSLGSTSESMGHNAWPLMGVVFEMNKQGGKSDIGFLSNFVDNDPEFQWSGPIKVSESDMSFSPKIQMLLDEDNNTINGESCHNFMITYSDYDSEYSDWDIRYVYPKKSFKYEKGKTPTMDDLVEAFLTASYQSETNSGLGYDKNANHYLITYAKKEENGTNTLKYRWANYDKIHNKDLWSDTFTYTSSANALYTPQVDINPTKGLVCWSWVEYLPGKRIVWSDTQWTHANGVEDIVMQEGSMKLYPNPAQE”, the “soluble on expression in E. coli” value is “not soluble”.

For “MSLNNKVIKKEVEEYLSRYFEGKDNYNKRVYESMNYSLNAGGKRVRPLLLLASYAIYNKDYKEVIDIAAAIEMIHTYSLIHDDLPCMDNDDLRRGRPTNHKIFGYSIALLAGDGLLNEAMNIMFKYCIGKGEEALKACLMISKAASSDGMIGGQVVDILSEGKKINEDELRYMHKKKTGELIKAAVVSGAILGGAPLHDVELLSQYGDKLGLAFQIEDDILDIIGDTKIMGKTSKSDLENDKCTYVTLYGIDKCKSICRELTDECLDIIGKIQGNTELLKEITELLLKRNREGHHHHHH”, the “soluble on expression in E. coli” value was “soluble”.

For the sequence “MIQVYKYDENFMFVEPLVVTEIDEKGDYIFPDNCTSVPLPDSPSYYLPRFDLSKQVWIETASQEYIDSLSPPPEEPSDVELLGQSLAEARILILKQNRIILNLQNEVKNLKDGTTALEHHHHHH”, the “soluble on expression in E. coli” value was “soluble”.

In the case of “MRIEVKLLPLKDNPILPFNYNYEVYSQILEKVNSIEPTIAKLLSSPHGFWTFSRIIVRKRKILPDKGIEILSDDVSLYISSSNEDIIRAIAEAVEKSPEFKIGELSFLVGDIKAIKVKELGKENVFSTLSPIVVRTVKFEGNKLRHWDLYPHDELFMDRLRKVMILRYSEVMGETPKDRDFTIEVLKFKPTRLMVGSSYIRGSLMVFRYAGSEEIARFGYENGFGEKTGLGFGMVKLIE”, the “soluble on expression in E. coli” value is recorded as “soluble”.

Regarding “GMQKTAFIWDLDGTLLDSYEAILSGIEETFAQFSIPYDKEKVREFIFKYSVQDLLVRVAEDRNLDVEVLNQVRAQSLAEKNAQVVLMPGAREVLAWADESGIQQFIYTHKGNNAFTILKDLGVESYFTEILTSQSGFVRKPSPEAATYLLDKYQLNSDNTYYIGDRTLDVEFAQNSGIQSINFLESTYEGNHRIQALADISRIFETK”, the “soluble on expression in E. coli” value is reported as “soluble”.

As to “MFNLQKRINGNNEDGRYLETRIAVRDKLLAQELQQLETALRDQKQKLWHLEVPSTSCLHELELTVTPQEGIYRGGKFRFKITVPPEYNNVPPVVKCLTKVWHPNINEDGSICLSILRQNSLDQYGWRPTRNLTDVVHGLVSLFNDLMDFNDALNIQAAQMWSQNRESFNHRVREYISRYC”, the “soluble on expression in E. coli” value is recorded as “soluble”.

As for “MAHHHHHHMRPLLVFGLRGTLLERIHASRVPSGMPGGAITVGMSRVWLRPSAMETLLALQQHCTLAVWSSTTARNTTPLMEAVFSQHAQKVNFAFVWSREHTTADEFRRVSATSRDDQHATVKDLREVYRRFPEIATPQNTVLIDDTPSKGKLNASNFLWLETCEELKIENPNVMPALRRFVEEHLLAEREDVRRLLPARVPWGQQ”, the “soluble on expression in E. coli” value is “not soluble”.

Take “HHMKLYIMPGACSLADHILLRWSGSSFDLQFLDHQSMKAPEYLALNPSGAVPALQVGDWVLTQNAAILNYITDIAPAERGLSGDGSLKARAEINRWIAFSNSDVHPMYWALFGGTAYLQDPQMIARSQDNARQKLRVLYQRADAHLKHHNWLANGQRSGADAYLYVTLRWAKKVGVDLSSLDALSAFFERMEADPGVQAALQAEGLI”: the “soluble on expression in E. coli” value is “soluble”.

With “MWLTKLVLNPASRAARRDLANPYEMHRTLSKAVSRALEEGRERLLWRLEPARGLEPPVVLVQTLTEPDWSVLDEGYAQVFPPKPFHPALKPGQRLRFRLRANPAKRLAATGKRVALKTPAEKVAWLERRLEEGGFRLLEGERGPWVQILQDTFLEVRRKKDGEEAGKLLQVQAVLFEGRLEVVDPERALATLRRGVGPGKALGLGLLSVAP”, the “soluble on expression in E. coli” value was “soluble”.

Regarding “MSLTEATVERIRLFLIESPIKMARLQGVGNVKGTVKRVLIELTSSDGVIGWGEAAPWEVFTGTPEAAFSALDIYLRPIALGKPVRRIRALMAELDRALVGHAEAKVAIEMALLDIVGKSSGLSVADLLGGRVRDTIPLSFSIADPDFPADLERMRKMVPDGNVIYKVKTGVKPHREDLDHLEAIRKEFGDKVDLRVDYNQALAPFGAIKILRDVEEFAPTFIEQPVPRKYLDVMAQLTAALETPVLADESCFDRRDMMEVVRREAADAVSIKLMKAGGLFEAQAIMAIADIAGLPGYGGTLWEGGIGLAAGTQLIAATPGISLGCEFYMPHHVLTEDVLEERVANRAGHVVVPDGPGLGIRVSEASVRANAQVLAEGHHHHHH”, the “soluble on expression in E. coli” value is “not soluble”.

Take “MGHHHHHHGGHMSLENLNSYIKGHFADSILVKEQILKDENLITLIKNASLEVIKAYKNGNKTLLAGNGGSAADAQHIAGEFVSRFYFDRPGIASIALTTDTSILTAIGNDYGYENLFARQVQAQGVKGDVFIGISTSGNSKNILKALEFCKQKEIISIGLSGASGGAMNELCDYCIKVPSTCTPRIQEAHILIGHIICAIVEEELFGKGFSCKQEGGS”: the “soluble on expression in E. coli” value is on record as “soluble”.

Take “AGHMVSCCYRSLAAPDLTLRDLLDIVETSQAHNARAQLTGALFYSQGVFFQWLEGRPAAVAEVMTHIQRDRRHSNVEILAEEPIAKRRFAGWHMQLSCSEADMRSLGLAESRQIVTVGRSL”: the “soluble on expression in E. coli” value was “soluble”.

As to “MTEFESTEDQKPTMLASLDHLSLRNWASPFEEASTPPTASDDSFQSSSEDNLSLRNWAPLSPNPETVKSAKSLRNYSTNPLIPSYICDLCESPKTSELRVAYDAATFQTTYSYSIIWDVEMNDVEHYRKVMETVSKSSANSSRSSFGYFFEARPGMCRLLRTLHNYATDTSQASLADYMIELSGRAPSPVVVKCGHYLCTACFDIVKNADGTYGCSSQQCYWKGSSRQESKKNYENDICRKQRAKALGMKDLGIDVKPASSASSNPIKETSDSSSETNCSLSSGPVSFNHTMLNSLTPVAEHSVAIMMVLVEPLEVYGIVHSYVEMSFPLDTNLAKALGVMLHRKKKILGDYVANGKLYFGFVNDDEKIGMRRIKSNYYDSLMVAEIPKFDDRVVLIFDVGDYVARGFKIYLK”, the “soluble on expression in E. coli” value was “not soluble”.

On to “GPGSMTDALAKPIRVCVLACSYEGSDSELRAYEGDLIQTPQNYFCSEDAQCTFHLELIKKATAYRQIRQLVMSGKFDVFYNQCDGAKDEDRAGVEVVEALEEFKVPYTGAISKYYEMSKPDMKLVAYYYNIATANYIVLAPGDDIESLCGDLQFPCIIKHISGYSSVGMDKSCKVYDMAHLVDRAARFMAEYQFALVEEFVNGDEATILACSDSTQPEGVRVFPPVQVAFPEGEDFKHFQLKWASYEGMKWTQVPQEDPAMQNMIDIARSAFKRMMGGVGYGRIDVRIDRQKNHKVVFLEINPNCGIMYPYGQEGSADWILRLNRGFQQREFAMLQIREAITRCQRERLLYVRRFDPVRGYHLRAAEDISVGTIIFQDECRPVRLCTKPYALQHFSKADYVDFQHNAWPVGRDGHYYALWDHDPAQWRAFNHSCEPNMSFAPMRSLDVVALRNIPKGEELTMDYRQFMDSTMPGFQCNCGTEKCEGFVSPGSLVDSPTAKIASQPTVALRHNIAVRLNPI”, for which the “soluble on expression in E. coli” value is “soluble”.

With “MPSGGQRKHTISNKTRKRPGKDLDQIHEDLKPEKAAKLLQQEIDYDLPGNGQFYCIECERHFVDEKTRQLHRKTKLHKNRVKTLKEVPYTQAEANAAGGSGFFPAITLKTRVELPKQPEIPIPVVAET”, the “soluble on expression in E. coli” value is “soluble”.

For the sequence “MGSDKIHHHHHHEIRENLLGNYSDRVLVVSHRADWRNAPENSLQGIRNCIDMGVDMVEIDLKKTKDGHLVIMHDKTINRTMTGKGNAEDYTLAELKAMRLKNGAGCKTRHQIPTLEEVMLLCKGKIMVNIDKGYDYFQEAYAVLEKTGTIDHCVIKAGLPYERVKAENGDVLDKVIFMPIVNLHKEGAEKIINDYQSHMKPTAYELVFNDDNEEILRLIRKVRDSGAKLFINSLWPELCGGHDDDRAVELHQPDESWGWILNQGAKLIQTDRPALLLEYLRKKKLHD”, the “soluble on expression in E. coli” value is on record as “not soluble”.

On to “MSLSHSAEDSRRRELGAFLRSRRERLTPSATGISTGLRRRTPGLRREEVAMIAGVGTTWYTWLEQGRDVRPSVEVLTALSGALRLDAAEKRHLFTLAGRQLPERRRIAAGKVEGPLLHMLQSLVLQPAYVVGPRWDVLAWNDAAVAIFGDYGQLEGDARNIIHGVFTDPHRRHLLADWEQVARATLAAFRAESARYVGDPDFERLIALMMRSSPEFREWWPQRDVVHRLSGMKHLRHPTAGAMVFEHMSLSIDDGSDMKLIVYTPLAEQNSIAKLQSLLDAILRKEDRLKGIITITTDPNSSSVDKLAAALEHHHHHH”, for which the “soluble on expression in E. coli” value is “soluble”.

For the sequence “MGSDKIHHHHHHMKCVVCGKNEAVEHGVCSQCLFDRANIENIGNVNIAICPKCGSVRIGKKWYREDYADHLLPLIMDEVKCSDPEAKISGDPKSVYFDESNRNLVLKVNITRDHMDPKVQTVSVPYSVNYISCPTCNKLTGSYFEATIQLRTVSTKYDEILSEVLDSIEKIMEKRRKMDASSFISKIERKPEGVDIYLGKKGDGDLVSSFILDHYFATLIVSKSLAGVKEGRKFFRFTYSLRILDAPEGAIVSVDKRKYILTAIRNRHIDVIDVETEERGRINRNVFFSNDGKIVTKEPQVKNFIVISRTEDESQIMDSQTFKIITIKGRAEGNEIRVFTYRGKYFI”, the “soluble on expression in E. coli” value is listed as “not soluble”.

For “MAHHHHHHMHSRTAPPLPPHTFAQVLHDRFVHYNDGKNKQTNIKRRNANNLNSFSYTAARAQGVVPRVDSTLGLLWTWRWAGAYGVACVCVCLCAADKMSAARHSHPPPPSLSRCRFPPPALFIMHRAHTYLLCIAAHLLLSPPPPSSPSRFVFASSSLSCPGCAFSWVTRFVSSMLRRTLCCGMMQLHALPTPNPLCHTFTIPADSFESFVPQGQSCEVAHRGLAWVHPLSQGLFEQYPQELMSVFIAPRHVSISVYTNVDWSKIEWSISSFLGHYLIFTNACISPAKEYTLMEDDLELKDTDTEVLQCIKELLREQVRPMVQRDGGDVKLLNFNEKTGIVSLAMLGACKTCPSSQNTLKDGIERVMKHFVPEVTEVIEDKEHQFYEDYGLLFDSEKALFKEAARLDRERQAKLRHNLTPMVLSYEVLNEPDGD”, the “soluble on expression in E. coli” value is reported as “not soluble”.
